Data taken from US12497460B2, “Anti-MSR1 antibodies and methods of use thereof” (REGENERON PHARMACEUTICALS, INC., priority 2018, dated 2025).

T1: MSR1-mediated Dil-AcLDL uptake in HEK293.Myc.hMSR1 cells (Homo sapiens, UniProt P21757)
T1 construct: expressed in transfected cells; host or cells: HEK293 (lentiviral transduction, hygromycin selection)
T1 sequence (P21757 1-451): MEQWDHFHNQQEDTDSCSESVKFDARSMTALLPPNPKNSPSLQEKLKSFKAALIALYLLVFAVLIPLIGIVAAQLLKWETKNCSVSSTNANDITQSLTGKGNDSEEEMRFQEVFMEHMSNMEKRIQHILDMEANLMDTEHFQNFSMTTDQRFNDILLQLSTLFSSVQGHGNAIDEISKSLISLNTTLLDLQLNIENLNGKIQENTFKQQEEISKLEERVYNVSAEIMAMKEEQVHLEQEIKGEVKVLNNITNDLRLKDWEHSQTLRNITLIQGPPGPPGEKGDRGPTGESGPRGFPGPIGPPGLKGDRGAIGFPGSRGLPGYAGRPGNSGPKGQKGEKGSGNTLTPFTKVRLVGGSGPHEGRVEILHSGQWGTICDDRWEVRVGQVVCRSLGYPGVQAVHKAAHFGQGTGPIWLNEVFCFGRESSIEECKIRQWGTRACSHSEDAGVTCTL

T2: His9-hMSR1 (human MSR1 extracellular domain) (Homo sapiens, UniProt P21757)
T2 construct: human MSR1 extracellular domain expressed with a N-terminal nonahistidine tag; His9 (nonahistidine) (N); purchased R&D Systems 2708-MS
T2 sequence (P21757 77-451 limits assumed): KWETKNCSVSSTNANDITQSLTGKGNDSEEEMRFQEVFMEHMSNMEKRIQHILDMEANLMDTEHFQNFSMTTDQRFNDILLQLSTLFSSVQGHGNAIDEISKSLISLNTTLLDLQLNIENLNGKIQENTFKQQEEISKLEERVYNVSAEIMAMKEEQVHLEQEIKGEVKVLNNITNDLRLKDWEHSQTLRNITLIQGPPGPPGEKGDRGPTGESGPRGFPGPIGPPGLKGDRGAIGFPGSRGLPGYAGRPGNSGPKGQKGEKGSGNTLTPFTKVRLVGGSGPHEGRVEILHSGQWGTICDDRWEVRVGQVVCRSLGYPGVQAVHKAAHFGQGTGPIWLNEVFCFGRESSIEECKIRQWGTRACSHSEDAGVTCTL

T3: PMA-treated THP-1 cells (endogenously expressed human MSR1) (Homo sapiens, UniProt P21757)
T3 construct: endogenous in cells; host or cells: THP-1 cells differentiated with PMA
T3 sequence (P21757 1-451): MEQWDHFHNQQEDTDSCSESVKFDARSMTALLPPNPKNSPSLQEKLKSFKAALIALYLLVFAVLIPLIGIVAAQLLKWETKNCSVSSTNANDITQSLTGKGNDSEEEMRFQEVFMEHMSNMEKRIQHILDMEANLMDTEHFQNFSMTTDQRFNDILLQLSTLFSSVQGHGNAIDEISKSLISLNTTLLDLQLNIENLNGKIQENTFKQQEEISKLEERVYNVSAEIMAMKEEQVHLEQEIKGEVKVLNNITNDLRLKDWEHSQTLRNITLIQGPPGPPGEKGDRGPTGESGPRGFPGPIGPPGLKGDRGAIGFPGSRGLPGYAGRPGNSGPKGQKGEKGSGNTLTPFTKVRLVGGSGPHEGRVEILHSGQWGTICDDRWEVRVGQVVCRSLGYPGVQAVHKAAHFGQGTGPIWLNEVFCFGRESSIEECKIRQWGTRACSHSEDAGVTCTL


Columns and labels:
[1] = target: T1, MSR1-mediated Dil-AcLDL uptake in HEK293.Myc.hMSR1 cells; experiment: Ligand uptake assay, Dil-AcLDL; assay type: cell-based; conditions: 10 μg/mL Dil-AcLDL; for Dil-Acetylated LDL % Inhibition: maximum inhibition; for IC50: read-out: Dil-Acetylated LDL IC50
Procedure: A bioassay was generated to assess the ability of the exemplary anti-MSR1 antibodies to regulate the uptake of certain MSR1 ligands.
Generation of MSR1-expressing cell lines for assay. […] The resulting cell line, referred to here as “HEK293.Myc.hMSR1”, was selected and maintained in DMEM containing 10% FIBS, NEAA, penicillin/streptomycin, L-glutamine, and 100 μg/mL hygromycin.
Ligand uptake assay. […] After 30 minutes, either oxidized or acetylated low-density lipoprotein (LDL) labeled with 1,1′dioctadecyl-3,3,3′,3′-tetramethylindocarbocyanine perchlorate (referred to as “Dil-OxLDL” or “Dil-AcLDL,” respectively) was added to the cells at a constant concentration of 10 μg/mL. […] Results were analyzed using nonlinear regression (4-parameter logistics) with the Prism 7 program to obtain EC50 and IC50 values. The percentage of inhibition was calculated with the Relative Fluorescent Unit (RFU) values by using the following equation: […]
In the equation, “RFUBaseline” is the fluorescence value from the cells treated with 10 μg/mL ligand without antibodies, “RFUInhibition” is the minimum fluorescence value with for a particular antibody with 10 μg/mL ligand, and “RFUBackground” is the fluorescence value from cells without any ligand or antibodies.

[2] = target: T2, His9-hMSR1 (human MSR1 extracellular domain); experiment: Biacore T200 surface plasmon resonance binding kinetics of anti-MSR1 antibody-drug conjugates and parental antibodies; conditions: 25° C.
Method in brief: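 Anti-MSR1 mAbs (ADCs with LXR or steroid linker-payloads, and unconjugated parents) captured on anti-human Fcγ surface; His9-tagged human MSR1 extracellular domain as analyte in HBS-ET, pH 7.4, 25° C. ka and kd from 1:1 fit with mass transport limitation; KD and t½ calculated from kinetic rates.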

[3] = tested on: parental HEK293 cells; experiment: Electrochemiluminescence antibody binding assay, non-specific binding control cells; assay type: cell-based, human
[4] = target: T2, His9-hMSR1 (human MSR1 extracellular domain); experiment: Biacore surface plasmon resonance binding kinetics of anti-MSR1 mAbs, antibody-capture format; conditions: analyte His9-hMSR1, NB = no binding observed; for kd: * = no dissociation observed, kd manually fixed at 1.00E−05; for ka: antibody-capture format; for Kd: calculated from kinetic rates; for t½: dissociative half-life
Procedure: Binding affinities and kinetic constants of human anti-MSR1 antibodies for different MSR1 reagents were determined by real-time surface plasmon resonance (Biacore 4000). All binding studies were performed in 10 mM HEPES, 150 mM NaCl, 3 mM EDTA, and 0.05% v/v Surfactant Tween-20, pH 7.4 (HBS-ET) running buffer at 25° C. and 37° C.
The association rate (ka) and dissociation rate (kd) were determined by fitting the real-time binding sensorgrams to a 1:1 binding model with mass transport limitation using Scrubber 2.0c curve-fitting software. Binding dissociation equilibrium constant (KD) and dissociative half-life (t½) were calculated from the kinetic rates as: […]

[5] = target: T3, PMA-treated THP-1 cells (endogenously expressed human MSR1); experiment: Electrochemiluminescence antibody binding assay on MSR1-expressing cells; assay type: cell-based

Dil-Acetylated LDL IC50 [1]	maximum inhibition of Dil-AcLDL uptake [1]	Dil-Acetylated LDL % Inhibition [1]	ka ([2]; Table 19, antibody-LXR ADCs and unconjugated antibodies)	kd ([2]; Table 19, * = no dissociation observed, kd manually fixed at 1.00E−05)	kd ([4]; 25° C.)	ka ([4]; 25° C.)	kd ([4]; 37° C.)	ka ([4]; 37° C.)	Ratio of 11 nM Antibody Binding Signal (RLU) to isotype control, PMA-treated THP-1 [5]	IC50 [1]	Kd ([4]; 25° C.)	t½ ([4]; 25° C.)	Kd ([4]; 37° C.)	t½ ([4]; 37° C.)	Molecule	Ratio of 11 nM Antibody Binding Signal (RLU) to isotype control, HEK293 [3]
no inhibition	no inhibition	no inhibition	77200 M⁻¹ s⁻¹	0.000596 s⁻¹	0.00111 s⁻¹	420000 M⁻¹ s⁻¹	0.0019 s⁻¹	1.09e+06 M⁻¹ s⁻¹	21	–	–	–	–	–	H1H27734P-N297Q: one of "Twelve anti-MSR1 antibodies"; "made with an N297Q single point mutation in human Fcγ portion" (antibody, V domains shown) VH: EVQLVESRGGLVQPGGSLRLSCAASGFTFSSYAMSWVRQAPGKGLEWVSAISGSGGSTFYADSVKGRFTISRDNSKNTVYLQMNSLRAEDTAVYYCAKALVLRFLEWLGDYWGQGTLVTVSS VL: DIQMTQSPSTLSASVGDRVTITCRASQSISSWLAWFQQKPGKAPKLLIYKASSLESGVPSRFSGSGSGTEFTLTISSLQPDDFATYYCQQYKSYWTFGQGTKVEIKR	14
–	–	65%	–	–	4.89e-05 s⁻¹	1.23e+06 M⁻¹ s⁻¹	1.23e-05 s⁻¹	2.67e+06 M⁻¹ s⁻¹	5	2.4 nM	0.0397 nM	3.93 h	0.0046 nM	15.7 h	H1H21227N-N297Q: "modified versions of 21227N (H1H21227N-N297Q and H1H21227N-N297D)"; anti-MSR1 antibody "with a N297Q single point mutation" (antibody, V domains shown) VH: QVQLVQSGAEVKKPGASVKVSCKVSGYTLTELSIHWVRQVPGKGLEWMGGFDPEEGETIFAQEFRDRVTLTEDTSPDTAYMELSSLKSEDAAVYYCTTPRYCNNGICYDYWGQGTLVTVSS VL: DIQMTQSPSSLSASVGDRVTITCRASQSISNYLNWYQQKPGKAPKLLIYTASSLQSGVPSRFSGSGSGTDFTLTISSLQTEDFATYYCQQSYSNFPITFGQGTRLEIKR	1
–	–	65%	–	–	1.44e-05 s⁻¹	1.2e+06 M⁻¹ s⁻¹	1.85e-05 s⁻¹	2.56e+06 M⁻¹ s⁻¹	7	2.1 nM	0.012 nM	13.3 h	0.00724 nM	10.4 h	H1H21227N: "anti-MSR1 antibodies ... (21227N, 21231N, 21234N) were produced with the original human Fcγ portion"; "H1H" = human IgG1 Fc (antibody, V domains shown, human IgG1 Fc, "anti-MSR1 antibodies ; (21227N, 21231N, 21234N) were produced with the original human Fcγ portion"; "H1H" = human IgG1 Fc) VH: QVQLVQSGAEVKKPGASVKVSCKVSGYTLTELSIHWVRQVPGKGLEWMGGFDPEEGETIFAQEFRDRVTLTEDTSPDTAYMELSSLKSEDAAVYYCTTPRYCNNGICYDYWGQGTLVTVSS VL: DIQMTQSPSSLSASVGDRVTITCRASQSISNYLNWYQQKPGKAPKLLIYTASSLQSGVPSRFSGSGSGTDFTLTISSLQTEDFATYYCQQSYSNFPITFGQGTRLEIKR	1
